The supplement of paper PMC10567573
± gives the standard deviation.

Experiment: protein stability index of a GFP-peptide fusion (GPS, HEK-293T) (PSI 1-6); higher = more stable
[1] = treatment: DMSO, c terminus: a fixed tail appended
[2] = treatment: MLN4924 1 uM, 8 h, c terminus: a fixed tail appended
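Also: 24-mer peptide tiles fused after GFP, lentivirally expressed, FACS-sorted into six equal bins by GFP/DsRed ratio, decoded by Illumina sequencing, PSI is the read-weighted mean bin number.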

Row | Sequence | protein stability index [1] | protein stability index [2] | protein stability index (treatment: DMSO, c terminus: native) | protein stability index (treatment: MLN4924 1 uM, 8 h, c terminus: native)
1 | TPNSKYVKLNVGGSLHYTTLRTLT [KCTD13] | 2.23 ± 0.15 | 2.02 ± 0.25 |  | 
2 | TPPEEQQEAEEPKARVLRSKSLCH [CDC25B] | 5.37 ± 0.26 | 5.37 ± 0.24 |  | 
3 | TPSARRNYRIAGARLMRSNYPPPL [C6orf223] | 2.92 ± 0.14 | 3.08 ± 0.22 |  | 
4 | TPSFSGDSSSSCSDHCITSSDMMD [VDR] | 5.11 ± 0.28 | 5.11 ± 0.12 |  | 
5 | TQSNRTSRLIGKKMNRSVSLTIY [WEE1] |  |  | 2.19 ± 0.14 | 2.27 ± 0.15
6 | TRDLAGLRQFFKQLPSPPFLPAAG [CEBPD] | 2.56 ± 0.28 | 2.44 ± 0.048 |  | 
7 | TRGRGGLLRDHIPRGKEELESLGG [MOG] | 4.72 ± 0.081 | 4.95 ± 0.19 |  | 
8 | TSANKITLVSSGSGTMGAAKVTGE [FLOT1] | 4.63 ± 0.12 | 4.69 ± 0.26 |  | 
9 | TSEGTTLSGVDLELVGSGYRMSLV [FCHO1] | 2.14 ± 0.48 | 2.29 ± 0.29 |  | 
10 | TSFLQHPWDESGSGCLPPEPLFEA [FOXJ1] | 3.56 ± 0.22 | 3.62 ± 0.35 |  | 
11 | TSQKVARKFWWKNVKMIVLICVIV [VAMP8] | 2.42 ± 0.31 | 2.15 ± 0.29 |  | 
12 | TSSSTSGSSDKVYAHQMVRTDSRE [MLH1] | 5.08 ± 0.17 | 5.1 ± 0.17 |  | 
13 | TTALLHYQLPQMPDVVVRSFMTWL [MED27] | 2.59 ± 0.32 | 2.62 ± 0.3 |  | 
14 | TVEKDKVTGETRVLSSTTLLPRQP [PALM] | 4.86 ± 0.23 | 4.87 ± 0.084 |  | 
15 | TVIFYGADSEQADIARMLYKDTCH [ZMYND11] | 2.28 ± 0.17 | 2.68 ± 0.4 |  | 
16 | TWEHSNLEVNKPKNRYANVIAYDH [PTPRD] | 2.98 ± 0.27 | 3.02 ± 0.32 |  | 
17 | TWGQIKKTTQEAEKLLERQGQAKT [CDK11A] | 4.98 ± 0.11 | 5.01 ± 0.072 |  | 
18 | VAGILSLLLGTAYSFYLFHPLAYG [POMT2] | 3.16 ± 0.24 | 2.98 ± 0.3 |  | 
19 | VASYILASHNGISYKDLDVIFGVE [TENT5D] | 2.93 ± 0.85 | 2.89 ± 1.4 |  | 
20 | VAVKKKLQLYFWKDREFHELQGDF [VPS39] | 2.12 ± 0.3 | 2.06 ± 0.58 |  | 
21 | VCMTFMKQIAGGDVTAKNIWLAES [INTS3] | 2.53 ± 0.62 | 2.92 ± 0.6 |  | 
22 | VDAGAEPGRSRMISQEEFARQLQL [LPCAT4] | 4.52 ± 0.27 | 4.5 ± 0.15 |  | 
23 | VDSLESHIPSQEVPGTQVGQGGKL [ZNF263] | 5.33 ± 0.2 | 5.16 ± 0.22 |  | 

Row | Sequence | protein stability index [1] | protein stability index [2] | protein stability index (treatment: DMSO, c terminus: native) | protein stability index (treatment: MLN4924 1 uM, 8 h, c terminus: native)
24 | VEASCSVCLEYLKEPVIIECGHNF [TRIM39] | 2.07 ± 0.39 | 2.25 ± 0.21 |  | 
25 | VEKVLRRWVDEEWPKRERGDPSRH [EDARADD] | 2.97 ± 0.43 | 3.28 ± 0.67 |  | 
26 | VETAFERLQQELEQQRCLLLARLR [TRIM15] | 2.81 ± 0.33 | 2.86 ± 0.3 |  | 
27 | VEYEERESEFDIEDEDKSEPEQTG [RBBP5] | 5.64 ± 0.23 | 5.54 ± 0.32 |  | 
28 | VFGFIAAYVLSKYQYFVCPVEYRS [CDS1] | 3.38 ± 0.39 | 3.15 ± 0.27 |  | 
29 | VGDLMGSLAYCLACGGGHLLPYFY [DHCR7] | 3.12 ± 0.28 | 3.47 ± 0.39 |  | 
30 | VGEKNCTGPPCDRQWTVSDWGPCS [ADAMTSL2] | 3.53 ± 0.3 | 3.32 ± 0.66 |  | 
31 | VGGYFVDKFVATMYHYLQFAYYKL [P3H4] | 3.67 ± 0.73 | 2.56 ± 0.048 |  | 
32 | VGRIIAPLLSGVAQEVSPCGPPSL [MFSD9] | 2.72 ± 0.23 | 2.65 ± 0.29 |  | 
33 | VIFGVELPGNEEFQVVKDAVLDCL [TENT5D] | 2.23 ± 0.41 | 2.25 ± 0.24 |  | 
34 | VISLLNEPNTFSPANVDASVMYRK [CDC34] | 2.92 ± 0.25 | 3.07 ± 0.21 |  | 
35 | VKLWKVSERDKRPEGYNLKDEEGR [PPP2R2B] | 4.07 ± 0.5 | 4.336 ± 0.038 |  | 
36 | VKVIRDFTTNKCKGFGFVTMTNYD [ELAVL3] | 2.35 ± 0.47 | 2.15 ± 0.22 |  | 
37 | VLALEERFGVRPKVTGYLISYSSM [MFSD9] | 2.17 ± 0.53 | 1.95 ± 0.099 |  | 
38 | VLGAHRGHPVGLALEAAVHVQKLS [TRIM14] | 2.63 ± 0.3 | 2.91 ± 0.26 |  | 
39 | VLGTKVDAERDGVKVPTTLAEYCV [CDC34] | 4.073 ± 0.014 | 4.07 ± 0.12 |  | 
40 | VLLMAICIVSPDRPGVQDAALIEA [VDR] | 2.8 ± 0.33 | 2.77 ± 0.66 |  | 
41 | VLRGLARPEHPPPAPTGQDDPQSQ [TMEM175] | 5.39 ± 0.45 | 5.54 ± 0.22 |  | 
42 | VLVAETTMARIRRVYVSGLMKGGA [APMAP] | 2.17 ± 0.27 | 2.1 ± 0.28 |  | 
43 | VNAKDNMWLTPLHRAVASRSEEAV [ANKRD44] | 4.07 ± 0.29 | 4.02 ± 0.44 |  | 
44 | VNFMYLQSLLQPKSSSVDSELTSL [SMG5] | 2.21 ± 0.39 | 2.15 ± 0.39 |  | 
45 | VNLPISFFRKLLDCCQVSAPNRFF [NLN] |  | 2.62 ± 0.6 |  | 
46 | VNYLPQNMTQDEFKSLFGSIGDIE [ELAVL3] | 3.8 ± 0.11 | 4 ± 0.27 |  | 

Row | Sequence | protein stability index [1] | protein stability index [2] | protein stability index (treatment: DMSO, c terminus: native) | protein stability index (treatment: MLN4924 1 uM, 8 h, c terminus: native)
47 | VPIGASIYVIGDLDTGTNYDYVRE [GAN] | 2.29 ± 0.45 | 2.21 ± 0.31 |  | 
48 | VQELCKQLHAKIDAAEEEKYDMEV [TNNI2] | 4.81 ± 0.28 | 4.74 ± 0.1 |  | 
49 | VQVENPERFSSAPCLLGSRVFSQG [TRIM35] | 3.09 ± 0.24 | 3.2 ± 0.22 |  | 
50 | VRDSDSLAESEFESAAFSQGSRSG [PHTF1] | 5.15 ± 0.26 | 5.13 ± 0.28 |  | 
51 | VRVCDLLLKKKPPQQQHHKAKRNR [ANKRD17] | 3.33 ± 0.39 | 3.38 ± 0.22 |  | 
52 | VSLGLGQPWHAVMDIESLSVFTEP [FBXO33] | 2.31 ± 0.56 | 1.99 ± 0.26 |  | 
53 | VSNTPLRTVDGSPMMKAAMYSVEI [PALM] | 2.27 ± 0.4 | 2.42 ± 0.17 |  | 
54 | VSPGSPPPPLPNHKYNTTSTSYSP [PLAGL1] | 4.27 ± 0.15 | 4.21 ± 0.27 |  | 
55 | VSTRLTVLREDQIPRGFPTIDMGP [PTPRD] | 2.33 ± 0.47 | 2.53 ± 0.18 |  | 
56 | VTDKTLLICKYDFIMLSCVQLQRI [TPRG1] | 3.35 ± 0.84 | 3.48 ± 0.72 |  | 
57 | VTFGNKQKVLGKALSLIRFPLMTI [BTBD1] | 2.4 ± 0.041 | 2.4 ± 0.75 |  | 
58 | VTPAQNNLLQPNFEAAFGTTPSTS [SNAP91] | 4.52 ± 0.13 | 4.62 ± 0.14 |  | 
59 | VTSYCRSATLVGFTVGSVLGQILV [SLC19A2] | 3.5 ± 0.39 | 2.84 ± 0.6 |  | 
60 | VVKYRRPMDVYETGIEYIVAQGPT [ADAMTSL2] | 2.13 ± 0.5 | 2.25 ± 0.46 |  | 
61 | VVLCFSIANPNSLNHVKSMWYPEI [RHOBTB1] | 4.05 ± 0.91 | 3.6 ± 0.21 |  | 
62 | VVNSHSLSLLGKLTISAAFNIVYI [SLC22A15] | 3.07 ± 0.43 | 3.09 ± 0.64 |  | 
63 | VVTRVVTGVYPRCLHASQWPVCAA [BRF1] | 2.54 ± 0.51 | 2.75 ± 0.23 |  | 
64 | VWYYCTLTIRESILINNGSRIKGW [TMEM120A] | 3.08 ± 0.61 | 2.96 ± 0.36 |  | 
65 | VYHIECFRCSVCSRQLLPGDEFSL [ISL2] | 2.34 ± 0.14 | 2.4 ± 0.23 |  | 
66 | WADAAGEAVPEGPDGGGPWLEDEP [ZSWIM9] | 5.62 ± 0.34 | 5.26 ± 0.47 |  | 
67 | WEEWQFLSPAQKDLYRDVMLENYS [ZNF649] | 3.48 ± 0.35 | 3.6 ± 0.2 |  | 
68 | WEKVGSGGFGQVYKVRHVHWKTWL [RIPK4] |  | 2.24 ± 0.21 |  | 
69 | WEPFDWGRLLEALCREEPVVQGPD [FANCE] | 3.001 ± 0.014 | 3.22 ± 0.23 |  | 

Row | Sequence | protein stability index [1] | protein stability index [2] | protein stability index (treatment: DMSO, c terminus: native) | protein stability index (treatment: MLN4924 1 uM, 8 h, c terminus: native)
70 | WFIHLVFVVLAFLTGVLCSYPNPN [TMEM192] | 3.346 ± 0.002 | 2.89 ± 0.56 |  | 
71 | WKERDEYITKVSEEVTRLGAQVKE [TRIM15] | 4.69 ± 0.23 | 4.22 ± 0.42 |  | 
72 | WLQKLCCPCCFGRDCLVLNQGYLS [PI4K2A] | 2.4 ± 0.45 | 2 ± 0.24 |  | 
73 | WNPDARYSEHFLQEAKLLHWNGRH [GLT8D2] | 2.81 ± 0.21 | 2.67 ± 0.27 |  | 
74 | YANGGLNYSYRGYGALSSNLQPPA [NOL4L] | 2.49 ± 0.36 | 2.94 ± 0.35 |  | 
75 | YDDDIDDEDEEEEDADCYDDDDSG [UBE2R2] | 5.58 ± 0.11 | 5.61 ± 0.24 |  | 
76 | YEDGTELTEDYFPSVPDNAELVLL [DFFB] | 3.52 ± 0.36 | 3.7 ± 0.23 |  | 
77 | YEDIRRENPVGTFHCSMSPGNLEK [PTPN9] | 4.58 ± 0.23 | 4.73 ± 0.13 |  | 
78 | YEFHLEFLDLVKPEPVYKLTQRQV [HACD3] | 2.54 ± 0.63 | 2.12 ± 0.076 |  | 
79 | YERPNVETIKCVVVGDNAVGKTRL [RHOBTB1] | 3.71 ± 0.23 | 3.86 ± 0.21 |  | 
80 | YFFLCQPFREILCKKLHIPLKAQN [P2RY14] | 2.62 ± 0.75 | 1.99 ± 0.25 |  | 
81 | YHYGVASCEACKAFFKRTIQGNIE [ESRRG] | 2.43 ± 0.19 | 2.65 ± 0.58 |  | 
82 | YIQSRADTMQNIESTIVELGSIFQ [STX5] | 2.33 ± 0.2 | 2.62 ± 0.29 |  | 
83 | YISRKYFATRPGAIETAMEDLKGH [TPRG1] | 2.73 ± 0.41 | 2.81 ± 0.43 |  | 
84 | YLATAKVLITVEDVNDNSPELTIT [PCDHGA10] | 2.49 ± 0.2 | 2.44 ± 0.22 |  | 
85 | YLGLVRTHINAVVAKIQAKIPGAK [RTN1] | 2.35 ± 0.29 | 2.06 ± 0.54 |  | 
86 | YLSQTDGAGDWREKEAKDLTELVQ [FUT8] | 4.52 ± 0.27 | 4.7 ± 0.29 |  | 
87 | YPALASKNGKKWEILNFNQYYEAC [ACSBG2] | 2.68 ± 0.26 | 2.81 ± 0.41 |  | 
88 | YPRYPDIHDLDLTLLNPRMIVDVT [CLCN6] | 2.48 ± 0.14 | 2.54 ± 0.22 |  | 
89 | YPWDENHCKEKRKTSLLDQLTNTS [NETO1] | 3.94 ± 0.21 | 4.07 ± 0.25 |  | 
